Experiments:
Experiment in all cases: EMSA
His6-Glis3(ZFD) = molecular target: T1, His6-Glis3(ZFD) (mouse, UniProt Q6XP49 345-496)
T1 sequence: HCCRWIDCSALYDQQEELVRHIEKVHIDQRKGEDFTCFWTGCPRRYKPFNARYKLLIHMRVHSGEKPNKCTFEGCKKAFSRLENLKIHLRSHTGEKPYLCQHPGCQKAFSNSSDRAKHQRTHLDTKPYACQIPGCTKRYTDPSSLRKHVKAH

His6-Glis3(ZFD)1m = molecular target: T2, His6-Glis3(ZFD)1m (mouse, UniProt Q6XP49 345-496, C347A)
T2 sequence: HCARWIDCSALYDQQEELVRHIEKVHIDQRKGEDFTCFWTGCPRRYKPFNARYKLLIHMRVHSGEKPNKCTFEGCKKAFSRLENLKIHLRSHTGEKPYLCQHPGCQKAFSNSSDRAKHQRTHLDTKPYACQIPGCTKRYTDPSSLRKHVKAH

His6-Glis3(ZFD)4m = molecular target: T3, His6-Glis3(ZFD)4m (mouse, UniProt Q6XP49 345-496, C444A)
T3 sequence: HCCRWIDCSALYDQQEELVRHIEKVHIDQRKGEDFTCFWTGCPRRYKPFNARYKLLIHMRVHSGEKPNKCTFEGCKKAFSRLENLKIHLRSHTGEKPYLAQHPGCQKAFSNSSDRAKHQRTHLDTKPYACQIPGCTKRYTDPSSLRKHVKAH

His6-Glis3(ZFD)2m = molecular target: T4, His6-Glis3(ZFD)2m (mouse, UniProt Q6XP49 345-496, C381A)
T4 sequence: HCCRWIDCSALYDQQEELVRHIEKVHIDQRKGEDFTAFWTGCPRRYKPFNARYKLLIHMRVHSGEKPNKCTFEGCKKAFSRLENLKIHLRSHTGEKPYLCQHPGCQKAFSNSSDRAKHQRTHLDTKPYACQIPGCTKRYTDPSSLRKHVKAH

His6-Glis3(ZFD)3m = molecular target: T5, His6-Glis3(ZFD)3m (mouse, UniProt Q6XP49 345-496, C414A)
T5 sequence: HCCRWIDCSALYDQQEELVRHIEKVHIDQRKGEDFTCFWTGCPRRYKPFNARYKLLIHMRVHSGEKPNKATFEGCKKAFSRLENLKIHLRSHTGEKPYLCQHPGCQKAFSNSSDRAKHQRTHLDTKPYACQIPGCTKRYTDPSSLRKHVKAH

His6-Glis3(ZFD)5m = molecular target: T6, His6-Glis3(ZFD)5m (mouse, UniProt Q6XP49 345-496, C474A)
T6 sequence: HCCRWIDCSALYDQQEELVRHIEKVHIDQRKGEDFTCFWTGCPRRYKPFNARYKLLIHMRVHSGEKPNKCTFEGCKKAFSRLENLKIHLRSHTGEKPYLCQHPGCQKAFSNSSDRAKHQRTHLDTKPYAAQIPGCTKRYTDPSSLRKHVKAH

B1: Glis-BS consensus (dsDNA)
DNA 1: CGTGGGGGGTC
DNA 2: GACCCCCCACG
His6-Glis3(ZFD)
  Kd: 3.69 ± 0.26 nM
His6-Glis3(ZFD)1m
  binding result: no binding
His6-Glis3(ZFD)4m
  binding result: no binding
His6-Glis3(ZFD)2m
  binding result: no binding
His6-Glis3(ZFD)3m
  binding result: no binding
His6-Glis3(ZFD)5m
  binding result: no binding
